Results from patent publication US20180236024A1 (STC UNM, published 2018).

Columns and labels:
[1] = target: T1, Rubicon (UniProt Q92622 1-972, limits assumed); assay: co-immunoprecipitation, HEK293T cells expressing GFP-IRGM
T1 sequence (looked up): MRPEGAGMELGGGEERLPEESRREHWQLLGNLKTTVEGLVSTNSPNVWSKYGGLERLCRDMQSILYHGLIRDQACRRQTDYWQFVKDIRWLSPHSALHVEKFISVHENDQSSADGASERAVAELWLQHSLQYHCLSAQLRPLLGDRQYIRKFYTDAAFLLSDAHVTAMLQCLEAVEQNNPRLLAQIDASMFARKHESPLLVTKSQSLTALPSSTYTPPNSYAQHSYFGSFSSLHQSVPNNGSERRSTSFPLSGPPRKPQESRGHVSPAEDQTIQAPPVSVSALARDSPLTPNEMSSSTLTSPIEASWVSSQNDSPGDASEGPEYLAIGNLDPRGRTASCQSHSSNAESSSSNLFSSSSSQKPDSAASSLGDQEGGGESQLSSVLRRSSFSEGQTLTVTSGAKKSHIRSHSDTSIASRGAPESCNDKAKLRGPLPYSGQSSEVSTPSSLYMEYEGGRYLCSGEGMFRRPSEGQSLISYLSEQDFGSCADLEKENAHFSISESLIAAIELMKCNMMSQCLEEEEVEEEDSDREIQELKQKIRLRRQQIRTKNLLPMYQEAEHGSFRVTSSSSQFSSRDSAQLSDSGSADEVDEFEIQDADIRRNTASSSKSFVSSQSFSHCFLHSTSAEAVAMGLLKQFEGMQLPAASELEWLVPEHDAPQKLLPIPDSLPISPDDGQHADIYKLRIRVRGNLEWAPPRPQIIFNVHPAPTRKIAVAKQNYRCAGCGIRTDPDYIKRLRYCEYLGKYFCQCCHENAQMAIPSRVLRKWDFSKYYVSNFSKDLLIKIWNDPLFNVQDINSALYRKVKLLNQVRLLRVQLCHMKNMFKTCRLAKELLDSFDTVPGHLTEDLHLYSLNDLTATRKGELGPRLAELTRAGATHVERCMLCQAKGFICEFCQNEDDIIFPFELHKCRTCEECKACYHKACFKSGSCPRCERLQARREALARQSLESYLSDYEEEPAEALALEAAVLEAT

[2] = target: T2, RIG-I (UniProt O95786 1-925); assay: co-IP with anti-GFP, GFP-IRGM and Flag-Rig-I
T2 construct: also called Flag-Rig-I
T2 sequence (looked up): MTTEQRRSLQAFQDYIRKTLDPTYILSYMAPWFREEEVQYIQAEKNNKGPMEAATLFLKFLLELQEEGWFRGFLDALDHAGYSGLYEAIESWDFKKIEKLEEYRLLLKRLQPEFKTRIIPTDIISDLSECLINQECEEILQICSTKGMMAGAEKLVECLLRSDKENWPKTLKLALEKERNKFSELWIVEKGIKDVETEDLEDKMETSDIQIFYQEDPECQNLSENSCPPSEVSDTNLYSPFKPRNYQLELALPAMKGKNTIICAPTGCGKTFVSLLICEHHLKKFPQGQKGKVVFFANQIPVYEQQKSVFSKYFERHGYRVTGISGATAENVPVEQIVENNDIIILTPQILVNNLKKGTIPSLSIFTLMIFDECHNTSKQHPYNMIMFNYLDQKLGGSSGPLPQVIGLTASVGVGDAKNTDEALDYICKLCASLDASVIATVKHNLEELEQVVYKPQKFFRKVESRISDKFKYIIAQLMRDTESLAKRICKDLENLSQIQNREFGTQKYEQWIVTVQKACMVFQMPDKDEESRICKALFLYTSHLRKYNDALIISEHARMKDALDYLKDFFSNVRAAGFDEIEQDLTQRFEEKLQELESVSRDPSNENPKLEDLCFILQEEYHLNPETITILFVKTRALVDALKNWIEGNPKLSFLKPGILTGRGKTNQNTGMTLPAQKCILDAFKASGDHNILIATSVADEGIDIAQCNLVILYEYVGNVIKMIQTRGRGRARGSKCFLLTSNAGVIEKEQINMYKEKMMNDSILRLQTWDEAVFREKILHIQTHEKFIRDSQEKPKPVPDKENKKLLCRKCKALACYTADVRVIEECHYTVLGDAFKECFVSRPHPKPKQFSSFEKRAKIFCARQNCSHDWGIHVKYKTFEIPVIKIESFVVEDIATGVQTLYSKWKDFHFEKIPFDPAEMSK

[3] = target: T3, NOD1 (UniProt Q9Y239 1-953); assay: co-IP with anti-GFP, GFP-IRGM and Flag-NOD1
T3 construct: also called Flag-NOD1
T3 sequence (looked up): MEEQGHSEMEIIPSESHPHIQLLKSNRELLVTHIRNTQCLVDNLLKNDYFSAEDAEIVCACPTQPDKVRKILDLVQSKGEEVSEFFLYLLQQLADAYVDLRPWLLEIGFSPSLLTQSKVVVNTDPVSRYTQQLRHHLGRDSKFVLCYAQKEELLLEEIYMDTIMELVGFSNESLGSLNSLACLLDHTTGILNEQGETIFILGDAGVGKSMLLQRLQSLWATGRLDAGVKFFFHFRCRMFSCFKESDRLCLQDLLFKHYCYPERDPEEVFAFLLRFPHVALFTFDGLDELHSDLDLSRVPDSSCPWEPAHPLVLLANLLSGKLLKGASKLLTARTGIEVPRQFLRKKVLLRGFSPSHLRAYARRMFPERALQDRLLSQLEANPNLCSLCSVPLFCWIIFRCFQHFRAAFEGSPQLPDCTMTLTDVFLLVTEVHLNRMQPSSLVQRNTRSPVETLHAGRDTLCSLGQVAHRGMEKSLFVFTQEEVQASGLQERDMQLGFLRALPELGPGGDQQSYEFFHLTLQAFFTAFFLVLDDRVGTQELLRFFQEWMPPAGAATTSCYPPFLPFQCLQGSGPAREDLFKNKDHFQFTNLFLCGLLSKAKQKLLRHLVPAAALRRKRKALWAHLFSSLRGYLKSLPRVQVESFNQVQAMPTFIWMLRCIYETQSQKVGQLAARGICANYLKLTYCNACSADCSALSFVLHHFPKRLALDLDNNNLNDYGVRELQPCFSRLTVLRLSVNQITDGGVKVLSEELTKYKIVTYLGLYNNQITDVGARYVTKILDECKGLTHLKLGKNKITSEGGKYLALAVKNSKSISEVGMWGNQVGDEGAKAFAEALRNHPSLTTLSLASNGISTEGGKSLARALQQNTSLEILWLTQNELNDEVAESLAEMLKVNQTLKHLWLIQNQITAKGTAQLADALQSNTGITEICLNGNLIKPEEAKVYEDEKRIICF

[4] = target: T4, TLR4 (UniProt O00206 24-839, limits assumed); assay: co-immunoprecipitation with anti-Flag (Flag-IRGM, tagged TLR4)
T4 construct: also called GFP-TLR4; YFP-TLR4 (Addgene Plasmid 13018)
T4 sequence (O00206 24-839 limits assumed): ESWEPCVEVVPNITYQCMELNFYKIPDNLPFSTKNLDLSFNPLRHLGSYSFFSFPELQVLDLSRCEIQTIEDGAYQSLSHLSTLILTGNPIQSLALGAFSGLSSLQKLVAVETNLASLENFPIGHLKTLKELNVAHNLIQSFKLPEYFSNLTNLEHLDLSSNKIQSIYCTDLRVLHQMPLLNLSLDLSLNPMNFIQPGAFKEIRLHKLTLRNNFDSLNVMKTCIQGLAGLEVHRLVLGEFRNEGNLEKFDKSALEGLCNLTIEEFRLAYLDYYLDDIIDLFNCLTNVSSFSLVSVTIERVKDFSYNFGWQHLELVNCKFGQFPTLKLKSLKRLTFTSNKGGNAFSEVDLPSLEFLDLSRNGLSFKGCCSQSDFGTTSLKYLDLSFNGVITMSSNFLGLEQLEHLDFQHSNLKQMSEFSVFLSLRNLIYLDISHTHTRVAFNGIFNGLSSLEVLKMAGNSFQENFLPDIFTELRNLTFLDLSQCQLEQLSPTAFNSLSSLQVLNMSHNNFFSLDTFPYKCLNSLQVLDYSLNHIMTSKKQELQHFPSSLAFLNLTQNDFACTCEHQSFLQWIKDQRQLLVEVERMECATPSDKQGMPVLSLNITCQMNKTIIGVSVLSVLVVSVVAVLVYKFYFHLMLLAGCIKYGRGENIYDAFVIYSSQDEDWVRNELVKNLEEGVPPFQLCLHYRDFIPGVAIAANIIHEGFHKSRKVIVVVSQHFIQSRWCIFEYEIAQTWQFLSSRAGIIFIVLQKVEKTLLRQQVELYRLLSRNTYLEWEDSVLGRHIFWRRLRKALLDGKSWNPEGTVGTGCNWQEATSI

[5] = target: T5, Beclin 1 (UniProt Q14457 1-450); assay: co-immunoprecipitation, HEK293T lysates
T5 construct: Flag-tagged overexpressed or endogenous, depending on the experiment; also called Flag-Beclin 1; Flag-Beclin-1
T5 sequence (Q14457 whole entry): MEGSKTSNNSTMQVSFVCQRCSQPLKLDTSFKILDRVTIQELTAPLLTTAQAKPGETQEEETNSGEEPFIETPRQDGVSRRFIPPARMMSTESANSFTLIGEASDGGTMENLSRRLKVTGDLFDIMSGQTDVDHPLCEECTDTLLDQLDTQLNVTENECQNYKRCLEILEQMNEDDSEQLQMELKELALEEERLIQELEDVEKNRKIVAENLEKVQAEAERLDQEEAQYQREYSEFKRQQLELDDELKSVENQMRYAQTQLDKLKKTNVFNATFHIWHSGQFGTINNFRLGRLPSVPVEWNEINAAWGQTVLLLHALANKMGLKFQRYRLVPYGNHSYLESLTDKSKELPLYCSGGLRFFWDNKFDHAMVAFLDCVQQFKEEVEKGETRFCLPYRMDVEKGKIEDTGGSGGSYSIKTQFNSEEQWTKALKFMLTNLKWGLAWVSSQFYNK

binding result [1]: no binding | binding result [2]: binds | binding result [3]: binds | binding result [4]: no binding | binding result [5]: binds
B1: IRGM (human IRGM, isoform d) (other, UniProt A1A4Y4-4 1-202, looked up)
chain: MEAMNVEKASADGNLPEVISNIKETLKIVSRTPVNITMAGDSGNGMSTFISALRNTGHEGKASPPTELVKATQRCASYFSSHFSNVVLWDLPGTGSATTTLENYLMEMQFNRYDFIMVASAQFSMNHVMLAKTAEDMGKKFYIVWTKLDMDLSTGALPEVQLLQIRENVLENLQKERLACHEKYLKSTPENSTRPRNINLCS
notes: Stood in cell lysates as GFP-, Flag- or V5-tagged protein or as the endogenous protein, depending on the experiment; Isoform d is said to be used in all experiments; also called GFP-IRGM; GFP-IRGMd
